Here are results for 3 molecules from patent US20160279204A1, “PEPTIDES AND PHARMACEUTICAL COMPOSITIONS FOR USE IN THE TREATMENT BY NASAL ADMINISTRATION OF PATIENTS SUFFERING FROM ANXIETY AND SLEEP DISORDERS” (MAX-PLANCK-GESELLSCHAFT ZUR FÖRDERUNG DER WISSENSCHAFT E.V., priority 2011, published 2016).

Entries after “also recorded” stand apart in the source; their conditions may differ. No end group written: not given here.

In data set [1] the test system is NPS target cells in the murine brain. The settings on record: mouse, in vivo. As for the experimental part:
The mice were sacrificed 30 min post-injection.
Immunohistochemistry was performed on free-floating cryosections (40 μm).

A further data set relates to EGFP-NPSR. The data set can be described thus: Cy3-NPS uptake in HEK cells transiently transfected with EGFP-NPSR. Format: cell-based. The text has this: In view of the fact that the NPSR is reported to be the only receptor mediating NPS effects (Duangdao et al., 2009) it may be concluded that the intracellular uptake of Cy3-NPS observed here also in vivo (FIGS. 1A-1D and FIG. 7A) likewise depends on the NPSR.

The next data set concerns brain target neurons. Conditions: mouse, in vivo, 4 h.
The test system of another data set is ventral hippocampus (VH). Nature of the data set: Spread of Cy3-NPS after microinjection into area CA1 of the VH. In kind it is in vivo, mouse. Conditions: 0.07 nmol unilaterally into CA1 of VH, 30 min after injection. As for the experimental part:
Animals were fixed in a stereotactic frame and maintained under isoflurane anesthesia (Forene® 100%, V/V; induction: 2.5%; maintenance: 1.5%; in O2; flow rate: 1 L/min). The mice received acute analgesic treatment with Metacam s.c. during surgery (0.5 mg/kg; in NaCl). 23 gauge stainless-steel guide cannulas were implanted in the CA1 region of the VH at the following coordinates: 3.1 mm posterior, ±3 mm lateral from bregma, and 2 mm ventral from the skull surface (Franklin and Paxinos, 2007). The guide cannulas were fixed with two screws and a two-component adhesive. For behavioural experiments, animals were implanted bilaterally for later bilateral injection, whereas for Cy3-NPS injections, implantation was performed unilaterally. The animals were allowed to recover for at least 6 days before starting the behavioural experiments. Substance infusions were carried out manually, on mice anesthetised by brief inhalation of isoflurane, using a 30 gauge injection cannula connected to a Tygon tube and a 10 μL Hamilton syringe. After infusion, the injection cannula was kept in place for additional 30 s to prevent substance outflow.
Cy3-NPS was administered unilaterally at a concentration of 0.07 nmol in a volume of 0.7 μL ACSF. […] After mounting with a fluorescence-preserving medium (Shandon Immu-Mount, Thermo Scientific, Bonn, Germany), sections were stored at 4° C.

The test system of data set [2] is evoked neuronal activity flow from the dentate gyrus to area CA1. The settings on record: Refojo et al., 2011, von Wolff et al.; cited from earlier work.
For data set [3] the test system is unchanged. The data set can be described thus: Voltage-sensitive dye imaging (VSDI) in VH slices. Also on record: species or system mouse. Conditions: (R)-SHA 68 10 μM, pretreatment 15 min, NPS 1 μM. As for the experimental part: According to Maggio and Segal (2007) and Fanselow and Dong (2010), VSDI experiments were conducted in the VH. Horizontal brain slices (350 μm-thick) were prepared as described in Refojo et al., 2011 and/or von Wolff et al., 2011). Only the first two slices from the ventral surface of the brain in which the CA1 region was clearly visible were used for the measurements. Staining of slices with the voltage-sensitive dye Di-4-ANEPPS and VSDI were carried out at room temperature (23-25° C.). For staining, slices were kept for 15 min in carbogenated (95% O2/5% CO2) ACSF containing Di-4-ANEPPS (7.5 μg/mL; <0.1% DMSO). The ACSF (pH 7.4) consisted of (in mM): 125 NaCl, 2.5 KCl, 25 NaHCO3, 1.25 NaH2PO4, 2 CaCl2, 1 MgCl2, and 25 glucose. Afterwards, slices were stored for at least 30 min in pure carbogenated ACSF. In the recording chamber, slices were continuously superfused with carbogenated ACSF (3 mL/min flow rate). VSDI and data analysis were performed using the MiCAM02 hard- and software package (BrainVision, Tokyo, Japan). The tandem-lens fluorescence microscope was equipped with the MiCAM02-HR camera and the 2× and 1× lens at the objective and condensing side, respectively. Acquisition settings were: 88×60 pixels frame size, 36.4×40.0 μm pixel size, and 2.2 ms sampling time. To reduce noise, four acquisitions subsequently recorded at intervals of 5 s were averaged. Neuronal activity was evoked by square pulse electrical stimuli (200 μs, 15-20 V) delivered to the dentate gyrus granule cell layer via a custom-made monopolar tungsten electrode (Teflon-insulated to the tip of 75 μm diameter). From recorded signals, the fractional change in fluorescence (ΔF/F) was calculated. For all quantifications, ΔF/F values were spatially and temporally smoothed using a 3×3×3 average filter. VSDI signals presented in images were smoothed with a 5×5×3 average filter. Pixelation of images was reduced by the interpolation function of the MiCAM02 software. […]

Description for brain target neurons: For intranasal application, the anesthetised mice were placed in a supine position, with the head supported at a 450 angle to the body as reported elsewhere (van den Berg et al., 2002). […] The mice were sacrificed at 15 min, 30 min and 4 hrs after the first application.
Brains were removed, post-fixed in 4% formaldehyde and cryoprotected in 20% sucrose, then shock-frozen in methylbutane. Immunohistochemistry was performed on free-floating cryosections (40 μm). The primary antibodies used were specific for neurofilament (1:1000; Abcam, Cambridge, UK) and GFAP (1:250; DAKO, Glostrup, Denmark). The secondary antibodies used were specific for mouse (Alexa 488 goat anti-mouse IgG) and rabbit (Alexa 488 donkey anti-rabbit IgG) (1:300; Invitrogen, Leek, The Netherlands). The sections were counterstained with DAPI (200 ng/ml; Carl Roth, Karlsruhe, Germany) and mounted with a fluorescence-preserving mounting medium (Shandon Immu-Mount, Thermo Scientific, Waltham, Mass., USA).
After acquisition, the images were processed using Photoshop and Illustrator (Adobe, San Jose, Calif., USA).

Consider “Cy3-NPS: fluorescent NPS-conjugate (Cy3-NPS), Phoenix Pharmaceuticals (SFRNGVGTGMKKTSFQRAKS; also: Cy3 label, place not given here; UniProt P0C0P6 70-89, looked up)”, for which, in data set [1], the “cellular fluorescence after ICV injection” value is “single cells already exhibited distinct patterns of fluorescence”; the “co-localisation with neurofilament (NF) and GFAP markers” value was “co-localised exclusively with the neuronal marker”; the “subcellular localisation in target cells” value was “found in the cytosol and throughout the processes of target cells”. Also, the “internalisation in HEK cells transfected with EGFP-NPSR” value in the data set on EGFP-NPSR (10 min of incubation with Cy3-NPS) is “the receptor-ligand complex was internalised and subsequently accumulated in cytoplasmic and perinuclear vesicular structures”. Moreover, the “uptake in HEK cells transfected with empty EGFP-expression plasmid” value in the data set with EGFP-NPSR (control cells without NPSR) was “did not take up Cy3-NPS molecules”. Besides, in the data set on brain target neurons, the “remaining Cy3-NPS after intranasal application” value is reported as “almost all traces of Cy3-NPS disappeared”. For the same molecule, in the data set with ventral hippocampus (VH), the “spread of injected Cy3-NPS” value was “remained locally restricted to the VH and accumulated in single cells of the hippocampal pyramidal, radiate, and oriens layers; also recorded: locally restricted to the site of injection”; the “uptake in nuclei of the amygdala” value was “not observed”.
On to “corticotropin-releasing hormone (SEEPPISLDLTFHLLREVLEMARAEQLAQQAHSNRKLMEII; ends and bridges not checked; UniProt P06850 154-194, looked up) [corticotropin-releasing hormone (CRH), anxiogenic neuropeptide]”, for which, in data set [2], the “activity flow from the dentate gyrus to area CA1” value was “enhances this activity flow”.
In the case of `O=C(NCc1ccc(F)cc1)N1CCN2C(=O)OC(c3ccccc3)(c3ccccc3)[C@H]2C1` [(R)-SHA 68, reference compound], in data set [3], the “effect of NPSR antagonist on the NPS effect” value is “completely abolished”.
